Laboratory results published in PMC11229326, “Structural characterization of two prototypical repressors of SorC family reveals tetrameric assemblies on DNA and mechanism of function” (Nucleic Acids Research, 2024).

What was measured:
[1] = biological target: the molecule itself; test: crystal structure; DeoR co-crystallised with the 18 bp DNA duplex OL18 (left half-operator); hanging drop, 18°C; two dimers in the asymmetric unit, tetramer formed with a symmetry-related dimer; 3.7 Å
[2] = biological target: the molecule itself; test: cryo-EM 2D classification; purified CggR-OLR complex (0.86 mg/ml) with 2 mM FBP, about 15 min on ice
[3] = biological target: the molecule itself; test: cryo-EM structure; CggR with the 45 bp operator DNA OLR (molar ratio 4:1.5), SEC-purified complex, 0.86 mg/ml; C2 symmetry, 4.3 Å
[4] = biological target: T1, DeoR (Bacillus subtilis, UniProt P39140 2-313); test: SEC; about 56 uM DeoR, protein:DNA 4:1; MST: 50 mM Tris-HCl pH 7.5, 150 mM NaCl, 50 mM MgCl2, 2 mM EDTA, 0.02% beta-mercaptoethanol; DeoR SEC mixes incubated 30 min on ice; CggR storage 20 mM Tris-HCl pH 7.5, 100 mM NaCl, 0.02% beta-mercaptoethanol, complex formed 30 min on ice; settings: protein: recombinant; tags: N-terminal GIDPFT cloning artifact after TEV cleavage (His6-V5 removed); chain copies: 4; blunt
T1 sequence: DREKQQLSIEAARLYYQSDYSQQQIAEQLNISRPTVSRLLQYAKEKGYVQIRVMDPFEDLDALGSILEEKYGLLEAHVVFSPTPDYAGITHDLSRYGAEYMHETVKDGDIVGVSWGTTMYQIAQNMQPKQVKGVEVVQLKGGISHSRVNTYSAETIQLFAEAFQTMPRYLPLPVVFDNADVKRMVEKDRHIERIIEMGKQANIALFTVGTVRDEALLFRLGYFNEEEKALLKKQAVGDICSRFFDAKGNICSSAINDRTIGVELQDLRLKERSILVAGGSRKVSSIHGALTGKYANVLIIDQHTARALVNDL

[5] = biological target: T1, DeoR; test: SEC; about 56 uM DeoR, protein:DNA 2:1; MST: 50 mM Tris-HCl pH 7.5, 150 mM NaCl, 50 mM MgCl2, 2 mM EDTA, 0.02% beta-mercaptoethanol; DeoR SEC mixes incubated 30 min on ice; CggR storage 20 mM Tris-HCl pH 7.5, 100 mM NaCl, 0.02% beta-mercaptoethanol, complex formed 30 min on ice; settings: protein: recombinant; tags: N-terminal GIDPFT cloning artifact after TEV cleavage (His6-V5 removed); chain copies: 4; blunt
[6] = biological target: T1, DeoR; test: MST; DeoR 4 uM; 50 mM MgCl2; Hill coefficient slightly below 1; MST: 50 mM Tris-HCl pH 7.5, 150 mM NaCl, 50 mM MgCl2, 2 mM EDTA, 0.02% beta-mercaptoethanol; DeoR SEC mixes incubated 30 min on ice; CggR storage 20 mM Tris-HCl pH 7.5, 100 mM NaCl, 0.02% beta-mercaptoethanol, complex formed 30 min on ice; settings: protein: recombinant; tags: N-terminal GIDPFT cloning artifact after TEV cleavage (His6-V5 removed); chain copies: 4; blunt
[7] = biological target: CggR (Bacillus subtilis, UniProt O32253 1-340); test: cryo-EM; 4.3 A; tetramer, no effector; MST: 50 mM Tris-HCl pH 7.5, 150 mM NaCl, 50 mM MgCl2, 2 mM EDTA, 0.02% beta-mercaptoethanol; DeoR SEC mixes incubated 30 min on ice; CggR storage 20 mM Tris-HCl pH 7.5, 100 mM NaCl, 0.02% beta-mercaptoethanol, complex formed 30 min on ice; settings: protein: recombinant; tags: N-terminal GIDPFT cloning artifact after TEV cleavage (His6-V5 removed); chain copies: 4; blunt
[8] = biological target: T1, DeoR; test: X-ray crystallography; 3.7 A; protein about 8 mg/ml; 75 mM CaCl2, 25 mM MgCl2; MST: 50 mM Tris-HCl pH 7.5, 150 mM NaCl, 50 mM MgCl2, 2 mM EDTA, 0.02% beta-mercaptoethanol; DeoR SEC mixes incubated 30 min on ice; CggR storage 20 mM Tris-HCl pH 7.5, 100 mM NaCl, 0.02% beta-mercaptoethanol, complex formed 30 min on ice; settings: protein: recombinant; tags: N-terminal GIDPFT cloning artifact after TEV cleavage (His6-V5 removed); chain copies: 4; blunt

B1: DeoR from Bacillus subtilis (deoxyribonucleoside regulator, SorC/DeoR subfamily repressor) (natural protein)
chain: GIDPFTDREKQQLSIEAARLYYQSDYSQQQIAEQLNISRPTVSRLLQYAKEKGYVQIRVMDPFEDLDALGSILEEKYGLLEAHVVFSPTPDYAGITHDLSRYGAEYMHETVKDGDIVGVSWGTTMYQIAQNMQPKQVKGVEVVQLKGGISHSRVNTYSAETIQLFAEAFQTMPRYLPLPVVFDNADVKRMVEKDRHIERIIEMGKQANIALFTVGTVRDEALLFRLGYFNEEEKALLKKQAVGDICSRFFDAKGNICSSAINDRTIGVELQDLRLKERSILVAGGSRKVSSIHGALTGKYANVLIIDQHTARALVNDL
notes: cloning artifact that remains at the N-terminus after TEV PR cleavage; DBD residues 1-55, EBD residues 56-313; in the crystal model residue T1 is the last residue of the cloning artifact; also called apo-DeoR; source: E. coli BL21 (DE3), purified (Ni-NTA, TEV PR cleavage, reverse Ni-NTA); LB broth for structural studies, minimal medium for mass photometry and SEC; not shown: His6, N-terminal, …
With B1 the “stoichiometry N” value [1] was 4.

B2: CggR from Bacillus subtilis (central glycolytic genes regulator, SorC/CggR subfamily repressor) (natural protein)
chain: GIDPFTMNQLIQAQKKLLPDLLLVMQKRFEILQYIRLTEPIGRRSLSASLGISERVLRGEVQFLKEQNLVDIKTNGMTLTEEGYELLSVLEDTMKDVLGLTLLEKTLKERLNLKDAIIVSGDSDQSPWVKKEMGRAAVACMKKRFSGKNIVAVTGGTTIEAVAEMMTPDSKNRELLFVPARGGLGEDVKNQANTICAHMAEKASGTYRLLFVPGQLSQGAYSSIIEEPSVKEVLNTIKSASMLVHGIGEAKTMAQRRNTPLEDLKKIDDNDAVTEAFGYYFNADGEVVHKVHSVGMQLDDIDAIPDIIAVAGGSSKAEAIEAYFKKPRNTVLVTDEGAAKKLLRDE
notes: cloning artifact that remains at the N-terminus after TEV PR cleavage; DBD and EBD connected by residues 92-94; also called apo-CggR; source: E. coli BL21 (DE3), purified (Ni-NTA, hydroxyapatite, TEV PR cleavage, reverse Ni-NTA, Mono-Q ion exchange); not shown: His6, N-terminal, cleaved
For B2, the “stoichiometry N” value [2] was 2 and the “stoichiometry N” value [3] was 4.

B3: OLR39 (dsDNA)
DNA 1: ATTGAACAAAATTTCAATTACCAATTTACATATGTTCAA
DNA 2: TTGAACATATGTAAATTGGTAATTGAAATTTTGTTCAAT
B3: binds [4].

B4: OL44 (dsDNA)
DNA 1: CACGTTCAAACCTTTCATTGAACAAAATTTCAATTACCAATTTACA
DNA 2: TGTAAATTGGTAATTGAAATTTTGTTCAATGAAAGGTTTGAACGTG
B4: no binding [4].

B5: OR24 (dsDNA)
DNA 1: TACCAATTTACATATGTTCAAAAG
DNA 2: CTTTTGAACATATGTAAATTGGTA
B5: no binding [5].

B6: OLR65 (dsDNA)
DNA 1: GTGACACGTTCAAACCTTTCATTGAACAAAATTTCAATTACCAATTTACATATGTTCAAAAGTCG
DNA 2: CGACTTTTGAACATATGTAAATTGGTAATTGAAATTTTGTTCAATGAAAGGTTTGAACGTGTCAC
B6 showed a Kd [6] of about 30 µM.

B7: CggR OLR (45 bp) (dsDNA)
DNA 1: TGACGGGACGTTTTTTGTCATAGCGGGACATATAATGTCCAGCAA
DNA 2: TTGCTGGACATTATATGTCCCGCTATGACAAAAAACGTCCCGTCA
B7: binds [7].

B8: OL18 (dsDNA)
DNA 1: ATTGAACAAAATTTCAAT
DNA 2: ATTGAAATTTTGTTCAAT
B8: binds [8].
